Here are results for one molecule from patent US7381540B2, “Composition for measuring glucose having improved substrate specificity” (Toyo Boseki Kabushiki Kaisha, priority 2005, dated 2008).

A short description of the experiment: Maltose activity of purified PQQGDH by GDH activity measurement (PMS/DCPIP, Test Example 1). The experiment is classed as biochemical, Acinetobacter baumannii strain NCIMB11517. Particulars: substrate concentration in the assay mixture 4.8 mM; PIPES-NaOH pH 6.5, 37° C. As for the experimental part:
D-glucose+PMS+PQQGDH→D-glucono-1,5-lactone+PMS (red)
PMS (red)+DCPIP→PMS+DCPIP (red)
The presence of DCPIP (red) formed by reduction of […] (DCPIP) by phenazine methosulfate (PMS) (red) was measured by spectrophotometry at 600 nm.
• A. D-glucose reagent: 1.0 M (1.8 g D-glucose (molecular weight: 180.16)/10 ml H2O) • B. PIPES-NaOH buffer: pH 6.5, 50 mM (1.51 g of PIPES (molecular weight: 302.36) suspended in 60 ml of water dissolved in 5 N NaOH followed by the addition of 2.2 ml of 10% Triton X-100; adjusted to pH of 6.5±0.5 at 25° C. using 5 N NaOH and brought to a final volume of 100 ml by addition of water) • C. PMS solution: 24 mM (73.52 mg of phenazine methosulfate (molecular weight: […])/10 ml H2O) • D. DCPIP solution: 2.0 mM (6.5 mg of […]/10 ml H2O • E. Enzyme diluent: 50 mM PIPES-NaOH buffer containing 1 mM CaCl2, 0.1% Triton X-100 and 0.1% BSA (pH: 6.5) Procedure:
The following reaction mixture was prepared in a light-protected bottle and stored on ice (prepared at the time of use). • 1. […]
The reduction in the absorbance relative to water at 600 nm was recorded for 4 to 5 minutes with a spectrophotometer while maintaining the temperature of the mixture at 37° C., and the ΔOD per minute was calculated from the initial linear portion of the curve (OD test). […]
Activity was calculated using the following formula. […]

B1: wild type PQQGDH: wild type PQQ dependent glucose dehydrogenase (Toyobo GLD-321) (protein, listed as Acinetobacter baumannii)
chain: DIPLTPAQFAKAKTENFDKKVILSNLNKPHALLWGPDNQIWLTERATGKILRVNPVSGSAKTVFQVPEIVSDADGQNGLLGFAFHPDFKHNPYIYISGTFKNPKSTDKELPNQTIIRRYTYNKTTDTFEKPIDLIAGLPSSKDHQSGRLVIGPDQKIYYTIGDQGRNQLAYLFLPNQAQHTPTQQELNSKDYHTYMGKVLRLNLDGSVPKDNPSFNGVVSHIYTLGHRNPQGLAFAPNGKLLQSEQGPNSDDEINLVLKGGNYGWPNVAGYKDDSGYAYANYSAATNKSQIKDLAQNGIKVATGVPVTKESEWTGKNFVPPLKTLYTVQDTYNYNDPTCGEMAYICWPTVAPSSAYVYTGGKKAIPGWENTLLVPSLKRGVIFRIKLDPTYSTTLDDAIPMFKSNNRYRDVIASPEGNTLYVLTDTAGNVQKDDGSVTHTLENPGSLIKFTYNGK
For B1, the “maltose activity (ratio of the activity value when using maltose to the activity value when using glucose)” value was 110%.
